Assay results as given in the supplement of paper PMC9112550, “Optimization of the antimicrobial peptide Bac7 by deep mutational scanning” (BMC Biology, 2022).

Test system: Escherichia coli TOP10
Assay: shrunken log2 fold change of peptide-encoding DNA abundance (4.5 h post-induction vs induction); higher = less antimicrobial activity (less host growth inhibition)
Details: time post-induction: 4.5 h; library: site-saturation at positions 5, 18, 19, 20
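Also: peptides expressed intracellularly from a pBAD plasmid library in pooled LB shake-flask culture, induced with 0.3% L-arabinose, DNA abundance read by NGS, three biological replicates, DESeq2 with apeglm shrinkage.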

With RRIRVRPPRLPRPRPRPLTFPRP the “shrunken log2 fold change” value was -0.271.
RRIRCRPPRLPRPRPRPPMRPRP was tested, and the “shrunken log2 fold change” value was 0.945.
For RRIRSRPPRLPRPRPRPMAYPRP, the “shrunken log2 fold change” value was -0.0939.
With RRIRSRPPRLPRPRPRPFMTPRP the “shrunken log2 fold change” value was -0.328.
RRIRNRPPRLPRPRPRPTFQPRP was tested, and the “shrunken log2 fold change” value was 0.0675.
RRIRYRPPRLPRPRPRPMIIPRP was tested, and the “shrunken log2 fold change” value was -0.138.
With RRIRGRPPRLPRPRPRPPCRPRP the “shrunken log2 fold change” value was 0.637.
For RRIRQRPPRLPRPRPRPLLSPRP, the “shrunken log2 fold change” value was 0.00947.
With RRIRRRPPRLPRPRPRPFDGPRP the “shrunken log2 fold change” value was 0.079.
RRIRYRPPRLPRPRPRPQAMPRP was tested, and the “shrunken log2 fold change” value was -0.418.
With RRIRQRPPRLPRPRPRPYINPRP the “shrunken log2 fold change” value was -0.299.
RRIRFRPPRLPRPRPRPTNKPRP was tested, and the “shrunken log2 fold change” value was -0.301.
For RRIRWRPPRLPRPRPRPNNSPRP, the “shrunken log2 fold change” value was -0.723.
With RRIRRRPPRLPRPRPRPNPFPRP the “shrunken log2 fold change” value was 0.125.
In the case of RRIRERPPRLPRPRPRPRQQPRP, the “shrunken log2 fold change” value is reported as 0.357.
RRIRQRPPRLPRPRPRPEWKPRP was tested, and the “shrunken log2 fold change” value was -0.00192.
With RRIRARPPRLPRPRPRPVLFPRP the “shrunken log2 fold change” value was 0.268.
With RRIRMRPPRLPRPRPRPFSDPRP the “shrunken log2 fold change” value was -0.0199.
In the case of RRIRIRPPRLPRPRPRPRNIPRP, the “shrunken log2 fold change” value is reported as -0.00545.
For RRIRHRPPRLPRPRPRPSCRPRP, the “shrunken log2 fold change” value was -0.105.
RRIRWRPPRLPRPRPRPAPCPRP was tested, and the “shrunken log2 fold change” value was 0.322.
For RRIRVRPPRLPRPRPRPGNLPRP, the “shrunken log2 fold change” value was -0.101.
With RRIRTRPPRLPRPRPRPIEGPRP the “shrunken log2 fold change” value was -0.0197.
With RRIRHRPPRLPRPRPRPPHRPRP the “shrunken log2 fold change” value was 0.198.
For RRIRHRPPRLPRPRPRPSDAPRP, the “shrunken log2 fold change” value was -0.293.
In the case of RRIRGRPPRLPRPRPRPSKQPRP, the “shrunken log2 fold change” value is reported as -0.0392.
With RRIRKRPPRLPRPRPRPLMVPRP the “shrunken log2 fold change” value was 0.0242.
With RRIRYRPPRLPRPRPRPDILPRP the “shrunken log2 fold change” value was 0.0101.
In the case of RRIRDRPPRLPRPRPRPFRPPRP, the “shrunken log2 fold change” value is reported as 0.0778.
RRIRNRPPRLPRPRPRPSDVPRP was tested, and the “shrunken log2 fold change” value was -1.29.
For RRIRRRPPRLPRPRPRPTWLPRP, the “shrunken log2 fold change” value was 0.633.
With RRIRQRPPRLPRPRPRPPWPPRP the “shrunken log2 fold change” value was 0.429.
RRIRIRPPRLPRPRPRPYKLPRP was tested, and the “shrunken log2 fold change” value was -1.04.
For RRIRERPPRLPRPRPRPRACPRP, the “shrunken log2 fold change” value was 0.177.
For RRIRWRPPRLPRPRPRPSPYPRP, the “shrunken log2 fold change” value was -0.25.
In the case of RRIRCRPPRLPRPRPRPWVNPRP, the “shrunken log2 fold change” value is reported as -0.19.
With RRIRVRPPRLPRPRPRPKCSPRP the “shrunken log2 fold change” value was -0.065.
In the case of RRIRWRPPRLPRPRPRPKMFPRP, the “shrunken log2 fold change” value is reported as -0.0838.
In the case of RRIRVRPPRLPRPRPRPSQTPRP, the “shrunken log2 fold change” value is reported as 0.112.
With RRIRCRPPRLPRPRPRPIFIPRP the “shrunken log2 fold change” value was -0.339.
RRIRRRPPRLPRPRPRPVPHPRP was tested, and the “shrunken log2 fold change” value was 0.449.
With RRIRCRPPRLPRPRPRPNGEPRP the “shrunken log2 fold change” value was -0.0109.
RRIRNRPPRLPRPRPRPGDCPRP was tested, and the “shrunken log2 fold change” value was 0.404.
RRIRVRPPRLPRPRPRPGHAPRP was tested, and the “shrunken log2 fold change” value was 0.245.
In the case of RRIRMRPPRLPRPRPRPSKMPRP, the “shrunken log2 fold change” value is reported as -0.0315.
In the case of RRIRRRPPRLPRPRPRPEYMPRP, the “shrunken log2 fold change” value is reported as 0.0765.
For RRIRERPPRLPRPRPRPCQWPRP, the “shrunken log2 fold change” value was -0.017.
In the case of RRIRRRPPRLPRPRPRPGPLPRP, the “shrunken log2 fold change” value is reported as 0.415.
RRIRLRPPRLPRPRPRPSGEPRP was tested, and the “shrunken log2 fold change” value was 0.0911.
In the case of RRIRPRPPRLPRPRPRPFATPRP, the “shrunken log2 fold change” value is reported as 0.0676.
For RRIRHRPPRLPRPRPRPSRYPRP, the “shrunken log2 fold change” value was -1.
In the case of RRIRDRPPRLPRPRPRPSRYPRP, the “shrunken log2 fold change” value is reported as -0.219.
In the case of RRIRFRPPRLPRPRPRPHHEPRP, the “shrunken log2 fold change” value is reported as -0.515.
In the case of RRIRRRPPRLPRPRPRPRCYPRP, the “shrunken log2 fold change” value is reported as 0.00798.
RRIRDRPPRLPRPRPRPYRGPRP was tested, and the “shrunken log2 fold change” value was -0.0122.
RRIRKRPPRLPRPRPRPVLCPRP was tested, and the “shrunken log2 fold change” value was 0.241.
In the case of RRIRHRPPRLPRPRPRPCGEPRP, the “shrunken log2 fold change” value is reported as -0.0851.
For RRIRTRPPRLPRPRPRPEANPRP, the “shrunken log2 fold change” value was -0.0399.
With RRIRYRPPRLPRPRPRPFSRPRP the “shrunken log2 fold change” value was -0.625.
With RRIRIRPPRLPRPRPRPTPLPRP the “shrunken log2 fold change” value was 0.245.
With RRIRFRPPRLPRPRPRPACYPRP the “shrunken log2 fold change” value was -0.066.
In the case of RRIRARPPRLPRPRPRPPAIPRP, the “shrunken log2 fold change” value is reported as 0.382.
In the case of RRIRPRPPRLPRPRPRPSTVPRP, the “shrunken log2 fold change” value is reported as -0.687.
With RRIRLRPPRLPRPRPRPHMHPRP the “shrunken log2 fold change” value was -0.578.
RRIRNRPPRLPRPRPRPVGSPRP was tested, and the “shrunken log2 fold change” value was 0.0409.
With RRIRGRPPRLPRPRPRPRYYPRP the “shrunken log2 fold change” value was -0.0701.
RRIRCRPPRLPRPRPRPIDIPRP was tested, and the “shrunken log2 fold change” value was 0.0768.
For RRIRTRPPRLPRPRPRPRVNPRP, the “shrunken log2 fold change” value was 0.0441.
RRIRGRPPRLPRPRPRPRYHPRP was tested, and the “shrunken log2 fold change” value was -0.0711.
RRIRPRPPRLPRPRPRPHTMPRP was tested, and the “shrunken log2 fold change” value was -0.143.
RRIRMRPPRLPRPRPRPSCGPRP was tested, and the “shrunken log2 fold change” value was 0.687.
In the case of RRIRKRPPRLPRPRPRPQWWPRP, the “shrunken log2 fold change” value is reported as 0.243.
In the case of RRIRERPPRLPRPRPRPREYPRP, the “shrunken log2 fold change” value is reported as -0.242.
For RRIRPRPPRLPRPRPRPGTQPRP, the “shrunken log2 fold change” value was 0.185.
For RRIRHRPPRLPRPRPRPNLLPRP, the “shrunken log2 fold change” value was -0.13.
In the case of RRIRYRPPRLPRPRPRPLWEPRP, the “shrunken log2 fold change” value is reported as -0.369.
In the case of RRIRDRPPRLPRPRPRPRKHPRP, the “shrunken log2 fold change” value is reported as -0.134.
For RRIRPRPPRLPRPRPRPNYGPRP, the “shrunken log2 fold change” value was 0.111.
With RRIRVRPPRLPRPRPRPVHRPRP the “shrunken log2 fold change” value was 0.164.
RRIRDRPPRLPRPRPRPRFTPRP was tested, and the “shrunken log2 fold change” value was 0.21.
RRIRPRPPRLPRPRPRPNVSPRP was tested, and the “shrunken log2 fold change” value was -0.0557.
With RRIRRRPPRLPRPRPRPDRRPRP the “shrunken log2 fold change” value was 0.108.
With RRIRCRPPRLPRPRPRPTKEPRP the “shrunken log2 fold change” value was -0.0808.
RRIRDRPPRLPRPRPRPMCYPRP was tested, and the “shrunken log2 fold change” value was -0.0124.
In the case of RRIRDRPPRLPRPRPRPTGSPRP, the “shrunken log2 fold change” value is reported as 0.0325.
For RRIRHRPPRLPRPRPRPVAWPRP, the “shrunken log2 fold change” value was 0.252.
For RRIRIRPPRLPRPRPRPPSNPRP, the “shrunken log2 fold change” value was -0.613.
For RRIRIRPPRLPRPRPRPYVGPRP, the “shrunken log2 fold change” value was -0.384.
In the case of RRIRDRPPRLPRPRPRPDELPRP, the “shrunken log2 fold change” value is reported as 0.414.
For RRIRGRPPRLPRPRPRPETQPRP, the “shrunken log2 fold change” value was 2.49.
For RRIRFRPPRLPRPRPRPAAMPRP, the “shrunken log2 fold change” value was 1.58.
For RRIRQRPPRLPRPRPRPPMDPRP, the “shrunken log2 fold change” value was -0.0321.
RRIRYRPPRLPRPRPRPMGKPRP was tested, and the “shrunken log2 fold change” value was -0.452.
RRIRDRPPRLPRPRPRPNWPPRP was tested, and the “shrunken log2 fold change” value was 0.0913.
RRIRSRPPRLPRPRPRPIQWPRP was tested, and the “shrunken log2 fold change” value was 0.268.
RRIRVRPPRLPRPRPRPEYSPRP was tested, and the “shrunken log2 fold change” value was -0.273.
With RRIRARPPRLPRPRPRPNGSPRP the “shrunken log2 fold change” value was 0.304.
In the case of RRIRNRPPRLPRPRPRPGSAPRP, the “shrunken log2 fold change” value is reported as 0.025.
With RRIRCRPPRLPRPRPRPYHNPRP the “shrunken log2 fold change” value was -1.12.
For RRIRHRPPRLPRPRPRPLDGPRP, the “shrunken log2 fold change” value was -0.34.
RRIRSRPPRLPRPRPRPSIPPRP was tested, and the “shrunken log2 fold change” value was -0.458.
RRIRPRPPRLPRPRPRPWNMPRP was tested, and the “shrunken log2 fold change” value was -0.189.
For RRIRIRPPRLPRPRPRPCMFPRP, the “shrunken log2 fold change” value was -0.738.
RRIRGRPPRLPRPRPRPYVIPRP was tested, and the “shrunken log2 fold change” value was -0.0899.
For RRIRIRPPRLPRPRPRPPTHPRP, the “shrunken log2 fold change” value was -0.184.
With RRIRVRPPRLPRPRPRPPEAPRP the “shrunken log2 fold change” value was -0.0358.
For RRIRQRPPRLPRPRPRPDFGPRP, the “shrunken log2 fold change” value was 0.0964.
In the case of RRIRNRPPRLPRPRPRPTEVPRP, the “shrunken log2 fold change” value is reported as -0.268.
In the case of RRIRHRPPRLPRPRPRPAGGPRP, the “shrunken log2 fold change” value is reported as -0.131.
